Assay [1] has as its target T1, recombinant cynomolgus monkey CD38-ECD-C-his (cynomolgus monkey, UniProt Q5VAN0 45-301).
T1 construct: Extracellular region fused to 6-His; also called cyno CD38-C-His; recombinant cynomolgus monkey CD38 protein
As to the kind of experiment: SPR, His-captured cyno CD38, Fab analyte, 1:1 fit. A general note: Surface plasmon resonance follows binding to a sensor surface in real time, without labels.
Protocol: (§1) Surface plasmon resonance (SPR) was used to measure the binding affinities of the Fab fragments for human and cynomolgus monkey CD38. Affinities were measured on a Biacore T200 instrument (Biacore, GE Healthcare) at 25° C. and analyzed with the Biacore T200 Evaluation Software (v3.1).
(§2) The affinities to human and cynomolgus monkey CD38 were assessed by immobilizing CD38 and using Fab fragments as analyte. Biotinylated recombinant human CD38 protein was immobilized to around 160 RU on flow-path 2 of a Series S Sensor Chip SA or to around 100 RU on flow-path 2 of a Series S BiotinCAPture Chip and recombinant cynomolgus monkey CD38-his protein was immobilized to around 50-100 RU on flow-path 2 of a Series S CM5 Sensor Chip previously coated with anti-histidin antibody. Fab fragments were injected in single cycle kinetic at different concentrations ranging from 7.8 to 2000 nM, in HBS-EP+ buffer (Biacore, GE Healthcare, catalog NO: BR100669) at a flow rate of 30 μl/min for 3 min on flow-path 1 and 2 (flow-path 1 being used as reference). Dissociation was monitored for 5 min.

The target in assay [2] is T2, recombinant biotinylated human CD38 Avitag, His Tag (Acrobiosystems, CD8-H82E7) (human, UniProt P28907 43-300, biotinylated (Avitag)).
T2 construct: Bought protein; also called biotinylated human CD38-avi-his protein; biotinylated recombinant human CD38 protein
Nature of the assay: SPR, biotinylated CD38 captured, Fab analyte, 1:1 fit.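 Further: biacore T200 at 25 °C, single-cycle kinetics with Fab injected at 7.8–2000 nM for 3 min, dissociation followed 5 min, reference flow path subtracted.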
Protocol: as §1, §2

The target of assay [3] is T2, recombinant biotinylated human CD38 …. As to the kind of experiment: SPR, biotinylated CD38 captured, Fab as analyte.
Assay [4] addresses T3, recombinant human CD38-ECD-C-his (human, UniProt P28907 43-300).
T3 construct: Extracellular region fused to 6-His, made in house; also called human CD38-C-His; recombinant human CD38 protein
As to the kind of experiment: SPR, Fab captured as ligand, CD38 analyte.
Protocol: Affinities of the Fab to human and cynomolgus CD38 using the Fab as ligand were measured on a Biacore T200 instrument (Biacore, GE Healthcare) at 25° C. and analyzed with the BiacoreT200 Evaluation Software (v3.1). […] The affinities to human and cynomolgus monkey CD38 were assessed by immobilizing Fab fragments and using human or cynomolgus monkey CD38 protein as analyte. Around 50-200 RU of Fab was captured on flow-path 2 of a Series S CM5 Sensor Chip coupled with anti-human Fab antibodies. Human or cynomolgus monkey CD38 was injected in multi cycle kinetic at different concentrations ranging from 0.2 to 100 nM, in HBS-EP+ buffer (Biacore, GE Healthcare, catalog NO: BR100669) at a flow rate of 30 μl/min for 5 min on flow-path 1 and 2 (flow-path 1 being used as reference). Dissociation was monitored for 10 min. […] Experimental data were processed using the 1:1 Langmuir kinetic fitting model. Measurements included zero-concentration samples for referencing. Chi², U- and residual values were used to evaluate the quality of a fit between the experimental data and individual binding models.

B1: Anti-CD38-UCP03-H2 Fab (Fab, V domains shown)
VH: QVQLVQSGAEVKKPGSSVKVSCKASGGEFSIYVISWVRQAPGQGLEWMGRVIPSTGDTNYAQKFQGRVTITADESTSTAYMELSSLRSEDTAVYYCARGKAYYSGWLAIWGQGTLVTVSS
VL: not shown
notes: human IgG1 Fab
In the case of B1, the dissociation constant Kd in assay [1] amounted to 672 nM; in assay [2] it was 1850 nM.

B2: Anti-CD38-UCP03-A6 Fab (Fab, V domains shown)
VH: QVQLVQSGAEVKKPGSSVKVSCKASGGDFSLYAISWVRQAPGQGLEWMGGIIPLLGEPVYAQKFQGRVTITADESTSTAYMELSSLRSEDTAVYYCARGHRVYSSSPFDYWGQGTLVTVSS
VL: not shown
notes: human IgG1 Fab
With B2, the Kd in assay [1] came to 525 nM; in assay [2], 410 nM.

B3: Anti-CD38-UCP03-B6 Fab (Fab, V domains shown)
VH: QVQLVQSGAEVKKPGSSVKVSCKASGGHISNSAINWVRQAPGQGLEWMGRVIPVIDDAYYAQKFQGRVTITADESTSTAYMELSSLRSEDTAVYYCARSRGYYGSFYFDIWGQGTLVTVSS
VL: not shown
notes: human IgG1 Fab; also called anti-CD38-B6; anti-CD38-B6 Fab
For the molecule B3, the Kd was 829 nM in assay [1] and 225 nM in assay [2].

B4: anti-CD38-B6-MP01-C2 FAB (Fab, V domains shown)
VH: QVQLVQSGAEVKKPGSSVKVSCKASGGAFSDYVISWVRQAPGQGLEWMGRVIPVIDDAYYAQKFQGRVTITADESTSTAYMELSSLRSEDTAVYYCARSRGYYGSFYFDIWGQGTLVTVSS
VL: not shown
notes: human IgG1 Fab
In the case of B4, the Kd in assay [3] was 209 nM; in assay [4] it was 345 nM.

B5: Anti-CD38-UCP02-B1 Fab (Fab, V domains shown)
VH: QVQLVQSGAEVKKPGSSVKVSCKASGGQFSFYAINWVRQAPGQGLEWMGEIIPDYGVTHYAQKFQGRVTITADESTSTAYMELSSLRSEDTAVYYCARWSYTYGIRYYYKLFDPWGQGTLVTVSS
VL: not shown
notes: human IgG1 Fab
As to B5, the dissociation constant Kd in assay [2] worked out at 595 nM.

B6: Anti-CD38-UCP02-B7 Fab (Fab, V domains shown)
VH: EVQLVESGGGLVKPGGSLRLSCAASGFSFNEAWMTWVRQAPGKGLEWVGRIKSYSDGGYTGYAAPVKGRFTISRDDSKNTLYLQMNSLKTEDTAVYYCARSPGIPYHYFDVWGQGTLVTVSS
VL: not shown
notes: human IgG1 Fab
As to B6, the Kd in assay [2] is 1710 nM.

B7: Anti-CD38-UCP01-C2 Fab (Fab, V domains shown)
VH: QVQLVQSGAEVKKPGSSVKVSCKASGGYLGIYAISWVRQAPGQGLEWMGRIIPILGEADYAQKFQGRVTITADESTSTAYMELSSLRSEDTAVYYCARGGVWWDYWGQGTLVTVSS
VL: not shown
notes: human IgG1 Fab
Turning to B7, the figures for the Kd in assay [1] and in assay [2] were 53.5 nM and 85.3 nM, respectively.

B8: Anti-CD38-UCP02-F2 Fab (Fab, V domains shown)
VH: QVQLVQSGAEVKKPGSSVKVSCKASGDVFSLLAIGWVRQAPGQGLEWMGRIIPSLDATHYAQKFQGRVTITADESTSTAYMELSSLRSEDTAVYYCARGRDVLRSYYFDIWGQGTLVTVSS
VL: not shown
notes: human IgG1 Fab
Regarding B8, the Kd came to 14 nM in assay [1] and 14.2 nM in assay [2].

B9: Anti-CD38-UCP01-E2 Fab (Fab, V domains shown)
VH: QVQLVQSGAEVKKPGSSVKVSCKASGGSFSNYAIGWVRQAPGQGLEWMGRIIPVFGSAHYAQKFQGRVTITADESTSTAYMELSSLRSEDTAVYYCARGLGYYLYSSYYFDIWGQGTLVTVSS
VL: not shown
notes: human IgG1 Fab; also called anti-CD38-E2; anti-CD38-E2 Fab
Regarding B9, the Kd in assay [1] amounted to 88.9 nM; in assay [2], 110 nM.

B10: Anti-CD38-UCP02-F6 Fab (Fab, V domains shown)
VH: EVQLLESGGGLVQPGGSLRLSCAASGFTFSFYDMSWVRQAPGKGLEWVSAVSLYGDETYYADSVKGRFTISRDNSKNTLYLQMNSLRAEDTAVYYCAREPVSYDYYGSYFDYWGQGTLVTVSS
VL: not shown
notes: human IgG1 Fab
With B10, the Kd in assay [2] came out at 389 nM.

B11: Anti-CD38-UCP01-B1 Fab (Fab, V domains shown)
VH: QVQLVQSGAEVKKPGSSVKVSCKASGGDFDQYYISWVRQAPGQGLEWMGRIIPTLGDSQYAQKFQGRVTITADESTSTAYMELSSLRSEDTAVYYCARAVIVSPYYYIYVFDVWGQGTLVTVSS
VL: not shown
notes: human IgG1 Fab
With B11, the dissociation constant (Kd) was 102 nM in assay [1] and 193 nM in assay [2].

B12: Anti-CD38-UCP02-D1 Fab (Fab, V domains shown)
VH: QVQLVQSGAEVKKPGSSVKVSCKASGGDFDQYYISWVRQAPGQGLEWMGRIIPTLGDSQYAQKFQGRVTITADESTSTAYMELSSLRSEDTAVYYCARAVIVSPYYYIYVFDVWGQGTLVTVSS
VL: not shown
notes: human IgG1 Fab
On to B12, for which the figures for the Kd in assay [1] and in assay [2] were 78 nM and 133 nM, respectively.

B13: Anti-CD38-UCP02-A7 Fab (Fab, V domains shown)
VH: EVQLLESGGGLVQPGGSLRLSCAASGFTFSFYDMSWVRQAPGKGLEWVSTITLHGGDTYYADSVKGRFTISRDNSKNTLYLQMNSLRAEDTAVYYCARDPSYIYSTSGYFDYWGQGTLVTVSS
VL: not shown
notes: human IgG1 Fab
Consider B13, for which the Kd in assay [2] stood at 71.1 nM.

B14: Anti-CD38-UCP03-B3 Fab (Fab, V domains shown)
VH: QVQLVQSGAEVKKPGSSVKVSCKASGGDFTLYSISWVRQAPGQGLEWMGRIIPTGANANYAQKFQGRVTITADESTSTAYMELSSLRSEDTAVYYCARSWPSLGSGWFDIWGQGTLVTVSS
VL: not shown
notes: human IgG1 Fab
As for B14, the Kd in assay [1] was found to be 170 nM; in assay [2] it was 115 nM.

B15: Anti-CD38-UCP02-E5 Fab (Fab, V domains shown)
VH: QVQLVQSGAEVKKPGSSVKVSCKASGGGFRHYFISWVRQAPGQGLEWMGGIIPAAATPYYAQKFQGRVTITADESTSTAYMELSSLRSEDTAVYYCARGYWHWFDYWGQGTLVTVSS
VL: not shown
notes: human IgG1 Fab
On to B15, for which, in assay [2], the Kd worked out at 0.03 nM.

B16: Anti-CD38-UCP03-H3 Fab (Fab, V domains shown)
VH: QVQLVQSGAEVKKPGSSVKVSCKASGGVFSQFPISWVRQAPGQGLEWMGGIIAGYGATEYAQKFQGRVTITADESTSTAYMELSSLRSEDTAVYYCARVYGGIDWGQGTLVTVSS
VL: not shown
notes: human IgG1 Fab
Turning to B16, the Kd came to 178 nM in assay [1] and 810 nM in assay [2].

B17: Anti-CD38-UCP02-H1 Fab (Fab, V domains shown)
VH: QVQLVQSGAEVKKPGSSVKVSCKASGDKFNTYAISWVRQAPGQGLEWMGGITPRYDYAHYAQKFQGRVTITADESTSTAYMELSSLRSEDTAVYYCARSWGFRAGYLDYWGQGTLVTVSS
VL: not shown
notes: human IgG1 Fab
Take B17: the figures for the Kd in assay [1] and in assay [2] were 2.7 nM and 154 nM, respectively.

B18: Anti-CD38-UCP01-H1 Fab (Fab, V domains shown)
VH: QVQLVQSGAEVKKPGSSVKVSCKASGDFFSGYAINWVRQAPGQGLEWMGRIIPLLGDTYYAQKFQGRVTITADESTSTAYMELSSLRSEDTAVYYCARSAAGWFAYWGQGTLVTVSS
VL: not shown
notes: human IgG1 Fab
As for B18, the Kd in assay [1] came out at 352 nM; in assay [2], 437 nM.

B19: Anti-CD38-UCP01-F1 Fab (Fab, V domains shown)
VH: QVQLVQSGAEVKKPGSSVKVSCKASGGVFSLYTITWVRQAPGQGLEWMGSIIPLLGDPEYAQKFQGRVTITADESTSTAYMELSSLRSEDTAVYYCARYPYPYGSKYFDIWGQGTLVTVSS
VL: not shown
notes: human IgG1 Fab
Take B19: the Kd in assay [1] came to 393 nM; in assay [2], 429 nM.

B20: Anti-CD38-UCP01-G1 Fab (Fab, V domains shown)
VH: QVQLVQSGAEVKKPGSSVKVSCKASGGGFSKYFITWVRQAPGQGLEWMGGVIPKIGYTSYAQKFQGRVTITADESTSTAYMELSSLRSEDTAVYYCARGSDDYASYSPLDSWGQGTLVTVSS
VL: not shown
notes: human IgG1 Fab
As for B20, the Kd in assay [1] was determined as 283 nM; in assay [2] it was 1120 nM.

B21: Anti-CD38-UCP03-B1 Fab (Fab, V domains shown)
VH: QVQLVQSGAEVKKPGSSVKVSCKASGGGFSKYFITWVRQAPGQGLEWMGGVIPKIGYTSYAQKFQGRVTITADESTSTAYMELSSLRSEDTAVYYCARGSDDYASYSPLDSWGQGTLVTVSS
VL: not shown
notes: human IgG1 Fab
With B21, the Kd in assay [1] is 462 nM; in assay [2], 882 nM.

B22: Anti-CD38-UCP02-F5 Fab (Fab, V domains shown)
VH: QVQLVQSGAEVKKPGSSVKVSCKASGGVFSYYTISWVRQAPGQGLEWMGRIIPSLGATHYAQKFQGRVTITADESTSTAYMELSSLRSEDTAVYYCARSDSFYYAYYMDLWGQGTLVTVSS
VL: not shown
notes: human IgG1 Fab
In the case of B22, the Kd worked out at 55.2 nM in assay [1] and 71.1 nM in assay [2].

B23: Anti-CD38-UCP03-C3 Fab (Fab, V domains shown)
VH: QVQLVQSGAEVKKPGSSVKVSCKASGGKFSNYAISWVRQAPGQGLEWMGRIIPQIGDAAYAQKFQGRVTITADESTSTAYMELSSLRSEDTAVYYCARASFLYYSYYFDYWGQGTLVTVSS
VL: not shown
notes: human IgG1 Fab
Turning to B23, the results for the Kd in assay [1] and in assay [2] were 465 nM and 117 nM, respectively.

B24: Anti-CD38-UCP03-C2 Fab (Fab, V domains shown)
VH: QVQLVQSGAEVKKPGSSVKVSCKASGGTFSNYAISWVRQAPGQGLEWMGGIIPAFGDAGYAQKFQGRVTITADESTSTAYMELSSLRSEDTAVYYCARGRVLYYSYYFDYWGQGTLVTVSS
VL: not shown
notes: human IgG1 Fab
With B24, the Kd was 628 nM in assay [1] and 1390 nM in assay [2].

B25: Anti-CD38-UCP02-C3 Fab (Fab, V domains shown)
VH: QVQLVQSGAEVKKPGSSVKVSCKASGDYFNNYAINWVRQAPGQGLEWMGRIIPFLDDANYAQKFQGRVTITADESTSTAYMELSSLRSEDTAVYYCARATSPLYSYYFDYWGQGTLVTVSS
VL: not shown
notes: human IgG1 Fab
On to B25, for which the dissociation constant (Kd) in assay [1] stood at 188 nM; in assay [2], 305 nM.

B26: Anti-CD38-UCP03-H5 Fab (Fab, V domains shown)
VH: QVQLVQSGAEVKKPGSSVKVSCKASGGLFSFYAISWVRQAPGQGLEWMGGIIPFFGEPQYAQKFQGRVTITADESTSTAYMELSSLRSEDTAVYYCARGSYRFDVWGQGTLVTVSA
VL: not shown
notes: human IgG1 Fab
On to B26, for which the Kd in assay [1] turned out to be 111 nM; in assay [2], 142 nM.

B27: Anti-CD38-UCP02-D5 Fab (Fab, V domains shown)
VH: QVQLVQSGAEVKKPGSSVKVSCKASGGIFSVHAIHWVRQAPGQGLEWMGEIIPVIGEADYAQKFQGRVTITADESTSTAYMELSSLRSEDTAVYYCAREQYYYALGGGFDYWGQGTLVTVSS
VL: not shown
notes: human IgG1 Fab
As for B27, the Kd in assay [1] was 33.5 nM; in assay [2], 192 nM.

B28: Anti-CD38-UCP03-E3 Fab (Fab, V domains shown)
VH: QVQLVQSGAEVKKPGSSVKVSCKASGGSFSIYAISWVRQAPGQGLEWMGGIIPNSGDTDYAQKFQGRVTITADESTSTAYMELSSLRSEDTAVYYCARGPYDSYGESYFDYWGQGTLVTVSS
VL: not shown
notes: human IgG1 Fab
For the molecule B28, the values for the Kd in assay [1] and in assay [2] were 195 nM and 300 nM, respectively.

Usually Kd stands for the equilibrium constant for the complex coming apart.

The record behind these values is patent publication US20240150489A1 (ICHNOS SCIENCES, published 2024).
